Each block holds one molecule with its values, some of them ahead of it.
Columns and labels:
[1] = molecular target: T1, 细胞表面的人FcγRIIB (CD32B) (human, UniProt P31994 43-310); assay: cell-based or functional assay
T1 construct: whole, on cells; also called huFcγRIIB; CHO/IIB
T1 sequence (looked up): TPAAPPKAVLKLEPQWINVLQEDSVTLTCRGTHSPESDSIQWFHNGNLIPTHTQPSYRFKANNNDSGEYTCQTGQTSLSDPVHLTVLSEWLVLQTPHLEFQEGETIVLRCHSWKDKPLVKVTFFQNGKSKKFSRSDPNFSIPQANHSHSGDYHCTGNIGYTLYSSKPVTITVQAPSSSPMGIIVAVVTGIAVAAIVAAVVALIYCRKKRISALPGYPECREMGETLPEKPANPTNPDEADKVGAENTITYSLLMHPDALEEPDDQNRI

[2] = molecular target: T1, 细胞表面的人FcγRIIB (CD32B); assay: two-colour FACS on CHO cells with full-length FcγRIIB, after mouse IgG1 isotype control
[3] = molecular target: T2, 人外周血白细胞上的huFcγRIIA (human, UniProt P12318 34-317); assay: FACS on human peripheral blood leukocytes
T2 construct: whole, on cells; also called FcγRIIA同种型
T2 sequence (looked up): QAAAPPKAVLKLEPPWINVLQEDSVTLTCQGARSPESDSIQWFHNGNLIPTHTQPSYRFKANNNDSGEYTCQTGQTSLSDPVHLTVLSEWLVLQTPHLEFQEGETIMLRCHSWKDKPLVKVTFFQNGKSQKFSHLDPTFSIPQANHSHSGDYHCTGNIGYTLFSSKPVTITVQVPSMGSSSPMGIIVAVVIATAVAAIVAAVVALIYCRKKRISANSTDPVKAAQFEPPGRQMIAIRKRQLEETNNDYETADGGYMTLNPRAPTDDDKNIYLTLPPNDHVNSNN

[4] = molecular target: FcγRIIB (ELISA包被, 哺乳动物系统产生) (human) (UniProt P31994); assay: direct ELISA, receptor-coated plate
[5] = molecular target: T1, 细胞表面的人FcγRIIB (CD32B); assay: two-colour FACS on CHO cells with full-length FcγRIIB
[6] = molecular target: T3, THP1单核细胞株上的CD32A (H131形式) (human, UniProt P12318 34-317); assay: FACS on THP-1 cells
T3 construct: whole, on cells; also called THP-I
T3 sequence (looked up): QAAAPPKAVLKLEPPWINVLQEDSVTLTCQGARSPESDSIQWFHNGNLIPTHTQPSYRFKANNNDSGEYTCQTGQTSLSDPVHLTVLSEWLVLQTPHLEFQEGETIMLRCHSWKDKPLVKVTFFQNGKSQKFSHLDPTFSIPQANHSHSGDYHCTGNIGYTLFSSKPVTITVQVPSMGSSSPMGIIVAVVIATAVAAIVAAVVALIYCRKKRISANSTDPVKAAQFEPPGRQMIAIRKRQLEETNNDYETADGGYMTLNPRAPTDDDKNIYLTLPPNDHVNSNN

[7] = molecular target: T4, 可溶性单体形式的人CD32A-R131 (human, UniProt P12318 34-217); assay: SPR (BIAcore 3000), antibody captured by goat anti-mouse F(ab′)2, soluble monomeric receptor injected
T4 construct: extracellular domain
T4 sequence (looked up): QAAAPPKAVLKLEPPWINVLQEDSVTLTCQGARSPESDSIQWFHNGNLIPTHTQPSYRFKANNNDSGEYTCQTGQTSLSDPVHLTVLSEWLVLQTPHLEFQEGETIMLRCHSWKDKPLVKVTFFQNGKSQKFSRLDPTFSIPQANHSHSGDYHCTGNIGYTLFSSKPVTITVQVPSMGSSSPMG

[8] = molecular target: T5, 可溶性单体形式的人CD32B (293H细胞中表达的可溶性细胞外结构域) (human, UniProt P31994 43-217); assay: SPR (BIAcore 3000), captured antibody, soluble monomeric receptor injected
T5 construct: extracellular domain; also called FcγRIIB
T5 sequence (looked up): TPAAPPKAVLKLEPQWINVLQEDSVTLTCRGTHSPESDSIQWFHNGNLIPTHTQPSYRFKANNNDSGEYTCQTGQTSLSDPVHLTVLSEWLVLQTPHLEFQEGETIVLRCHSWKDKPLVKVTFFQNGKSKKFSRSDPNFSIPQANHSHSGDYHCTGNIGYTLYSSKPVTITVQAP

ADCC [1]: > 10 ng/mL
Molecule: 嵌合的抗CD32B抗体ch2B6 (antibody)

percent of cells labelled [2]: 60 %
Molecule: 聚集的生物素化人IgG (ligand)

binding result [3]: no binding | fold binding against the commercial antibodies AT10, FL18.26 and IV.3 [4]: < 4.5 倍 | binding result [5]: binds | binding result [6]: no binding | binding result [7]: no binding (tested: 100nM可溶性受体) | binding result [8]: binds
B1: 由克隆2B6产生的小鼠单克隆抗体 (ATCC PTA-4591) (antibody)
heavy: QVQLQQPVTELVRPGASVMLSCKASDYPFTNYWIHWVKQRPGQGLEWIGVIDPSDTYPNYNKKFKGKATLTVVVSSSTAYMQLSSLTSDDSAVYYCARNGDSDYYSGMDYWGQGTSVTVSS
light: DILLTQSPAILSVSPGERVSFSCRTSQSIGTNIHWYQQRTNGFPRLLIKNVSESISGIPSRFSGSGSGTDFILSINSVESEDIADYYCQQSNTWPFTFGGGTKLEIK
notes: The entries may hold only the variable regions; also called 2B6抗体; m2B6
